Assay [1] has as its target T1, H4K20 peptide (N-terminus biotin + aminohexanoic acid linker). As to the kind of experiment: luciferase-fusion assay on immobilized peptide, fusion at 100 nM, normalized to H3K9me3. The protocol:
(§1) For luciferase-based assays, 384-well white plates (PerkinElmer) were coated for 16 h at 4° C. with 4 μg/ml streptavidin (New England Biolabs, N7021S) in TBS pH 8.5 (50 mM Tris-HCl pH 8.5, 150 mM NaCl). Each well was blocked with 60 μl/well of TBS pH 8.5 containing 0.5% BSA (TB buffer) and incubated at 25° C. for 1 h. Plates were washed four times with 90 μl/well of PBS pH 7.4, 0.05% Tween-20 (PT buffer) and incubated with 25 μl/well of biotinylated histone peptides at 5 μg/ml in TB buffer pH 8.5 for 30 min at 25° C. Plates were washed and incubated with Cbx chromodomain-luciferase fusions diluted to 0.1 nM for Cbx. VD or 100 nM for Cbx.wt in TB buffer, 0.05% Tween-20, 1 mM DTT, 5% glycerol (TBT buffer). Plates were incubated for 1 h at 25° C. with gentle shaking, washed six times and luminescence intensity was measured with a Biotek Synergy 5 plate reader (Biotek) using the ONE-Glo™ EX luciferase assay system reagent (Promega). Following background subtraction of the luminescence signal derived from wells coated with streptavidin, the luminescence intensity was normalized to wells with immobilized H3K9me3 peptide.
(§2) To enhance detection sensitivity, each chromodomain was expressed as a fusion to the N-terminus of an engineered firefly luciferase and binding was measured by luminescence intensity.

For assay [2], the target named is T2, H4K20me3 (Kme3 at peptide residue 8 (histone H4 K20); N-terminal biotin and aminohexanoic acid linker).
T2 construct: also called H4K20Me3 peptide
Described as above. The protocol:
as §1, §2

In a further assay the target is T3, H3R17.
T3 construct: also called H3R17 peptide (non-modified)
T3 peptide: {Biotin-Ahx}-KSTGGKAPRKQLATKAA
As to the kind of experiment: luciferase-fusion assay on immobilized peptide. The protocol:
as §1, §2

The target in assay [3] is T4, H3K14.
T4 construct: also called H3K14 peptide (non-modified)
T4 peptide: {Biotin-Ahx}-TARKSTGGKAPRKQLAT
As to the kind of experiment: luciferase-fusion assay on immobilized peptide. The protocol: as §1, §2

A further assay has as its target T5, H3R17me1.
T5 construct: also called H3R17me1 peptide
T5 peptide: {Biotin-Ahx}-KSTGGKAP[Arg(Me)]KQLATKAA
As to the kind of experiment: luciferase-fusion assay on immobilized peptide. The protocol: as §1, §2

Assay [4] has as its target T1, H4K20 peptide. In words: luciferase-fusion assay on immobilized peptide, fusion at 0.1 nM, normalized to H3K9me3. The protocol: as §1, §2
For assay [5], the target named is T2, H4K20me3. Described as above. The protocol:
as §1, §2

Assay [6] deals with T6, H3K27me3 peptide (Kme3 (trimethyl-lysine) at the 10th residue (KQLATKAARKme3SAPATGGVK); N-terminus biotin + aminohexanoic acid linker, or FITC at the N-terminus for fluorescence polarization).
T6 construct: Synthetic peptide (GenScript); One entry is used for the biotinylated and the FITC-labelled form
T6 peptide: KQLATKAARKSAPATGGVK
As to the kind of experiment: fluorescence polarization, FITC-peptide 0.5 nM.
Protocol: (§4) Fluorescence polarization (FP) assays were performed in a 20 μl volume at a constant histone peptide concentration of 0.5 nM. Binding measurements were performed in FP buffer (25 mM HEPES pH 7.5, 150 mM NaCl, 1 mM DTT, 0.01% TritonX-100) by mixing in a 384-well black plate (Corning) 0.5 nM FITC-labeled histone peptides with serial dilutions of wild-type Cbx chromodomains ranging from 200-0.2 μM. For affinity determination of Cbx7.V1 and all Cbx. VDs, chromodomains were serially diluted from 50 μM to 50 nM. Samples were incubated for 30 min at 25° C. prior to data acquisition. […] Dissociation constants were determined using Prismv.9.3 (GraphPad Software Inc) with a one-site total binding model.
FP assays was used to measure the affinities of each wild-type Cbx chromodomain (Cbx.wt) and its Cbx. VD version for the H3K9me3 and H3K27me3 peptides (Table 13).

The target in assay [7] is T4, H3K14. As to the kind of experiment: phage ELISA, specificity heatmap. The protocol:
(§3) Phage ELISA experiments were performed by coating 384-well MAXISORP plates (Thermo Fisher Scientific) with 25 μl/well of 2 μg/ml streptavidin (New England Biolabs, N7021S) in PBS pH 7.4, and incubating them at 4° C. for 16 h. Each well was blocked with 60 μl/well of PBS pH 7.4 containing 0.5% BSA (PB buffer) and incubated at 25° C. for 1 h. Plates were washed four times with 90 μl/well of PBS pH 7.4 containing 0.05% Tween-20 (PT buffer) and incubated with 25 μl/well of biotinylated histone peptides at 2 μg/ml in PBS pH 7.4 for 30 min at 25° C. Plates were incubated with phage stocks previously diluted three-fold in PB buffer containing 0.05% Tween-20 (PBT buffer) at 25° C. for 1 h with gentle agitation. Plates were washed and bound phage was detected using 25 μl/well of an anti-M13-HRP-conjugated antibody (1:3,000 dilution in PT buffer; SinoBiological, 11973-MM05T-H). Following incubation at 25° C. for 30 min with gentle shaking, plates were washed, and binding was assessed by adding 25 μl/well of the 3,3′,5,5′-tetramethylbenzidine (TMB) (Thermo Fisher) chromogenic substrate. Plates were incubated with TMB at 25° C. with gentle shaking for 5-10 min, and the colorimetric reaction was stopped by addition of 25 μl/well of a IM H3PO4 solution. Plates were read spectrophotometrically at 450 nm using a PowerWave XS microplate reader (BioTek).

For another assay, the target named is T7, H3K14Ac.
T7 construct: also called H3K14Ac peptide
T7 peptide: {Biotin-Ahx}-TARKSTGGK(Ac)APRKQLAT
As to the kind of experiment: phage ELISA, specificity heatmap. The protocol: as §3

Assay [8] concerns the target T1, H4K20 peptide. In words: phage ELISA, specificity heatmap. The protocol:
as §3

Assay [9] addresses T2, H4K20me3. In words: phage ELISA, specificity heatmap. The protocol:
as §3

The target of assay [10] is T6, H3K27me3 peptide. In words: BLI, biotinylated peptide on streptavidin tips, steady state.
Protocol: BLI experiments were performed on an Octet HTX system (ForteBio) using biosensor tips coated with streptavidin to immobilize biotinylated H3K9me3 and H3K27me3 peptides. Binding analysis was performed by analyzing the association of biosensor-immobilized methylated peptides to Cbx7.V1 variants in solution at 5 or 1 μM. Binding assays were performed at 25° C. in BLI reaction buffer (25 mM HEPES pH 7.0, 150 mM NaCl, 1 mg/ml BSA, 0.01% Tween-20). Dissociation constants (KD) were obtained by fitting the response wavelength shifts in the steady-state regions with the Langmuir binding model.
The target in assay [11] is T6, H3K27me3 peptide. As to the kind of experiment: fluorescence polarization, FITC-peptide 0.5 nM.
Protocol: as §4
In assay [12] the target is T1, H4K20 peptide. In words: luciferase-fusion assay on immobilized peptide. The protocol:
as §1, §2

Assay [13] addresses T2, H4K20me3. In words: luciferase-fusion assay on immobilized peptide. The protocol: as §1, §2

Results on 20 molecules are retold here after patent publication US20260266833A1 (AXOIYA, published 2026).

Where a chain is given by its changes, count along the chain named. Names may count otherwise. Non-standard residues stand in square brackets, D forms with d. No end group written: not given here. *: point of attachment. Biotin = O=C1N[C@H]2[C@H](CS[C@H]2CCCCC(=O)*)N1; Arg(Me) = CNC(=N)NCCC[C@H](N)C(=O)O; Ahx = NCCCCCC(=O)O

B1: Cbx7.wt chromodomain-luciferase fusion (other)
chain: MSYYHHHHHHGSDYKDDDDKSSGENLYFQGSGGSSAIGEQVFAVESIRKKRVRKGKVEYLVKWKGWPPKYSTWEPEEHILDPRLVMAYEEKEERDRASGYRKRGPK
notes: not shown: engineered YY5 firefly luciferase from Photinus pyralis fused to the C-terminus
On to B1, for which the binding result in the assay with H4K20 peptide [1] and with H4K20me3 [2] was “binds” in each case.

B2: Cbx7.VD chromodomain-luciferase fusion (designed binder)
chain: B1 chain with Q40D, K64E
notes: as for B1
As to B2, the binding result with H3R17 is on record as “no binding (tested: 0.1 nM)”; with H3K14 [3], “no binding (tested: 0.1 nM)”; with H3R17me1, “no binding (tested: 0.1 nM)”; with H4K20 peptide [4], “binds”; with H4K20me3 [5], “binds”.

B3: Cbx2.VD chromodomain (tags removed) (designed binder)
chain: GEDVFAAECILSKRLRKGKLEYLVKWEGWSSKHNSWEPEENILDPRLLLAFQKKEHEKEVQNR
Consider B3, for which the dissociation constant Kd in the assay with H3K27me3 peptide [6] was determined as 3000 nM.

B4: phage-displayed Cbx7.V4 (designed binder)
chain: SAICDNVFAVESIRKKRVRKGKVEYLVKWEGWPQEYSTWEPEEHILDPRLVMAYEEKEERDRASGYRKRGPK
Consider B4, for which the binding result in the assay with H3K14 [7], in the assay with H3K14Ac, with H4K20 peptide [8] and in the assay with H4K20me3 [9] was “no binding” in each case.

B5: Cbx7.V1 back-mutant L37P, His6- and Flag-tagged (designed binder, not shown: small tags and cut ends)
chain: B4 chain with C4G, N6D, V7I, Q34P
B5: the dissociation constant Kd with H3K27me3 peptide [10] stood at 2500 nM.

B6: phage-displayed Cbx7.V5 (designed binder)
chain: B4 chain with C4G, D5H, N6D, A9P, E30R, G31D, Q34E, E35Q
With B6, the binding result with H3K14 [7], with H3K14Ac, with H4K20 peptide [8] and with H4K20me3 [9] was “no binding” throughout.

B7: phage-displayed Cbx7.V1 (designed binder)
chain: B4 chain with C4G, N6D, V7I, Q34L
For the molecule B7, the binding result with H3K14 [7], in the assay with H3K14Ac, with H4K20 peptide [8] and with H4K20me3 [9] was “no binding” throughout.

B8: Cbx7.VD chromodomain (tags removed) (designed binder)
chain: B4 chain with C4G, D5E, N6D, Q34P, E35K
notes: also called Cbx7 Q9D/K33E
For B8, the Kd in the assay with H3K27me3 peptide [6] and with H3K27me3 peptide [11] was 5000 nM throughout.

B9: Cbx7.V1 back-mutant D8E, His6- and Flag-tagged (designed binder, not shown: small tags and cut ends)
chain: B4 chain with C4G, D5E, N6D, V7I, Q34L
With B9, the dissociation constant Kd with H3K27me3 peptide [10] stood at 2000 nM.

B10: phage-displayed Cbx7.V6 (designed binder)
chain: B4 chain with C4F, D5E, N6D, A9P, E30K, Q34S
For B10, the binding result with H3K14 [7], with H3K14Ac, with H4K20 peptide [8] and in the assay with H4K20me3 [9] was “no binding” throughout.

B11: phage-displayed Cbx7.V3 (designed binder)
chain: B4 chain with D5E, N6Y, V7I, A9S, Q34P, S37M
With B11, the binding result in the assay with H3K14 [7], with H3K14Ac, with H4K20 peptide [8] and in the assay with H4K20me3 [9] was “no binding” each time.

B12: Cbx7.V1 back-mutant I10V, His6- and Flag-tagged (designed binder, not shown: small tags and cut ends)
chain: B4 chain with C4G, N6D, Q34L
As to B12, the dissociation constant Kd with H3K27me3 peptide [10] was determined as 2000 nM.

B13: Cbx7.V1 back-mutant D9Q, His6- and Flag-tagged (designed binder, not shown: small tags and cut ends)
chain: B4 chain with C4G, N6Q, V7I, Q34L
On to B13, for which the Kd with H3K27me3 peptide [10] stood at 2000 nM.

B14: phage-displayed Cbx7.V2 (designed binder)
chain: B4 chain with F8Y, A9P, E30K, Q34L
On to B14, for which the binding result in the assay with H3K14 [7], with H3K14Ac, with H4K20 peptide [8] and with H4K20me3 [9] was “no binding” each time.

B15: Cbx7 K33E chromodomain (tags removed) (designed binder)
chain: B4 chain with C4G, D5E, N6Q, Q34P, E35K
notes: FP: His6 and Flag tags removed with TEV protease
For B15, the Kd with H3K27me3 peptide [11] is 20000 nM.

B16: Cbx7.V1 chromodomain, His6- and Flag-tagged (designed binder, not shown: small tags and cut ends)
chain: B4 chain with C4G, N6D, V7I, Q34L
notes: BLI form; tags are said to be removed only for FP and ITC
For the molecule B16, the equilibrium dissociation constant (Kd) with H3K27me3 peptide [10] came to 2000 nM.

B17: Cbx7.V1 back-mutant E38K, His6- and Flag-tagged (designed binder, not shown: small tags and cut ends)
chain: B4 chain with C4G, N6D, V7I, Q34L, E35K
Take B17: in the assay with H3K27me3 peptide [10], the Kd amounted to 1500 nM.

B18: Cbx7 Q9D chromodomain (tags removed) (designed binder)
chain: B4 chain with C4G, D5E, N6D, E30K, Q34P, E35K
notes: as for B15
For the molecule B18, the Kd in the assay with H3K27me3 peptide [11] is 100000 nM.

B19: Cbx2.VD chromodomain-luciferase fusion (designed binder)
chain: MSYYHHHHHHGSDYKDDDDKSSGENLYFQGSGGSGEDVFAAECILSKRLRKGKLEYLVKWEGWSSKHNSWEPEENILDPRLLLAFQKKEHEKEVQNR
notes: as for B1
Consider B19, for which the binding result with H3R17, with H3K14 [3], with H4K20 peptide [12], in the assay with H4K20me3 [13] and with H3R17me1 was “no binding (tested: 0.1 nM)” each time.

B20: Cbx8.VD chromodomain-luciferase fusion (designed binder)
chain: MSYYHHHHHHGSDYKDDDDKSSGENLYFQGSGGSGEDVFAAEALLKRRIRKGRMEYLVKWEGWSQKYSTWEPEENILDARLLAAFEEREREMELYGP
notes: as for B1
On to B20, for which the binding result with H3R17, in the assay with H3K14 [3], in the assay with H4K20 peptide [12] and with H4K20me3 [13] was “no binding (tested: 0.1 nM)” each time.
